Test results published in patent US5998172.

Key:
[1] = target: activated leucocyte-cell adhesion molecule (ALCAM), CD6 ligand (human); assay: indirect immunofluorescence and flow cytometry, cultured TE cells; control
[2] = target: activated leucocyte-cell adhesion molecule (ALCAM), CD6 ligand (human); assay: flow cytometry, TE cells after CD46 mAb
[3] = target: activated leucocyte-cell adhesion molecule (ALCAM), CD6 ligand (human); assay: flow cytometry, TE cells after CD63 mAb; CD5-Rg subtracted
[4] = target: activated leucocyte-cell adhesion molecule (ALCAM), CD6 ligand (human); assay: flow cytometry, TE cells after CD40 mAb
[5] = target: activated leucocyte-cell adhesion molecule (ALCAM), CD6 ligand (human); assay: flow cytometry, TE cells after mAb J4-81; CD5-Rg subtracted
[6] = target: activated leucocyte-cell adhesion molecule (ALCAM), CD6 ligand (human); assay: flow cytometry, TE cells after CD54 mAb; CD5-Rg subtracted
[7] = target: activated leucocyte-cell adhesion molecule (ALCAM), CD6 ligand (human); assay: flow cytometry, TE cells after CD51 mAb
[8] = target: activated leucocyte-cell adhesion molecule (ALCAM), CD6 ligand (human); assay: flow cytometry, TE cells after CD9 mAb
[9] = target: activated leucocyte-cell adhesion molecule (ALCAM), CD6 ligand (human); assay: flow cytometry, TE cells, 10 mM EDTA against DME with 5% FBS
[10] = target: activated leucocyte-cell adhesion molecule (ALCAM), CD6 ligand (human); assay: flow cytometry, TE cells after mAb J4-81
[11] = target: activated leucocyte-cell adhesion molecule (ALCAM), CD6 ligand (human); assay: flow cytometry, HBL-100 cells after mAb J4-81
[12] = target: activated leucocyte-cell adhesion molecule (ALCAM), CD6 ligand (human); assay: flow cytometry, TE cells, buffer with 5 mM CaCl2
[13] = target: activated leucocyte-cell adhesion molecule (ALCAM), CD6 ligand (human); assay: flow cytometry, TE cells after CD51 mAb; CD5-Rg subtracted
[14] = target: activated leucocyte-cell adhesion molecule (ALCAM), CD6 ligand (human); assay: flow cytometry, TE cells after CD24 mAb; CD5-Rg subtracted
[15] = target: activated leucocyte-cell adhesion molecule (ALCAM), CD6 ligand (human); assay: flow cytometry, TE cells after control mAb P3
[16] = target: activated leucocyte-cell adhesion molecule (ALCAM), CD6 ligand (human); assay: flow cytometry, TE cells, buffer with 5 mM MnCl2
[17] = target: activated leucocyte-cell adhesion molecule (ALCAM), CD6 ligand (human); assay: flow cytometry, TE cells after CD66 mAb
[18] = target: activated leucocyte-cell adhesion molecule (ALCAM), CD6 ligand (human); assay: flow cytometry, TE cells after CD54 mAb
[19] = target: activated leucocyte-cell adhesion molecule (ALCAM), CD6 ligand (human); assay: indirect immunofluorescence and flow cytometry, cultured TE cells
[20] = target: activated leucocyte-cell adhesion molecule (ALCAM), CD6 ligand (human); assay: flow cytometry, TE cells after CD66 mAb; CD5-Rg subtracted
[21] = target: activated leucocyte-cell adhesion molecule (ALCAM), CD6 ligand (human); assay: flow cytometry, HBL-100 cells, 10 to 200 µg/ml
[22] = target: activated leucocyte-cell adhesion molecule (ALCAM), CD6 ligand (human); assay: flow cytometry, HBL-100 cells after control mAb P3
[23] = target: activated leucocyte-cell adhesion molecule (ALCAM), CD6 ligand (human); assay: flow cytometry, TE cells after CD46 mAb; CD5-Rg subtracted
[24] = target: activated leucocyte-cell adhesion molecule (ALCAM), CD6 ligand (human); assay: flow cytometry, TE cells after CD9 mAb; CD5-Rg subtracted
[25] = target: activated leucocyte-cell adhesion molecule (ALCAM), CD6 ligand (human); assay: flow cytometry, TE cells after control mAb P3; CD5-Rg subtracted
[26] = target: activated leucocyte-cell adhesion molecule (ALCAM), CD6 ligand (human); assay: flow cytometry, TE cells after CD59 mAb; CD5-Rg subtracted
[27] = target: activated leucocyte-cell adhesion molecule (ALCAM), CD6 ligand (human)
[28] = target: activated leucocyte-cell adhesion molecule (ALCAM), CD6 ligand (human); assay: flow cytometry, TE cells after CD63 mAb
[29] = target: activated leucocyte-cell adhesion molecule (ALCAM), CD6 ligand (human); assay: flow cytometry, TE cells after CD58 mAb; CD5-Rg subtracted
[30] = target: activated leucocyte-cell adhesion molecule (ALCAM), CD6 ligand (human); assay: flow cytometry, TE cells after CD24 mAb
[31] = target: activated leucocyte-cell adhesion molecule (ALCAM), CD6 ligand (human); assay: flow cytometry, TE cells after CD40 mAb; CD5-Rg subtracted
[32] = target: activated leucocyte-cell adhesion molecule (ALCAM), CD6 ligand (human); assay: flow cytometry, HBL-100 cells after mAb J4-81; CD5-Rg subtracted
[33] = target: activated leucocyte-cell adhesion molecule (ALCAM), CD6 ligand (human); assay: flow cytometry, TE cells, buffer with 5 mM MgCl2
[34] = target: activated leucocyte-cell adhesion molecule (ALCAM), CD6 ligand (human); assay: flow cytometry, TE cells after CD58 mAb
[35] = target: activated leucocyte-cell adhesion molecule (ALCAM), CD6 ligand (human); assay: flow cytometry, TE cells after CD59 mAb
[36] = target: activated leucocyte-cell adhesion molecule (ALCAM), CD6 ligand (human); assay: flow cytometry, HBL-100 cells after control mAb P3; CD5-Rg subtracted
[37] = target: activated leucocyte-cell adhesion molecule (ALCAM), CD6 ligand (human); remark: listed apart in the source

“CD5-Rg fusion protein (from UniProt P06127) (Fc fusion)” was tested, and the MFC (linear mean fluorescence channel) [1] was 72.1.

“CD6-Rg fusion protein (CD6 receptor globulin) (from UniProt P30203) (Fc fusion)” gave a % Binding [2] of 110%, a % inhibition [2] of -10% and a Δ Fluorescence [3] of 53. The % Binding [4] was 92%, the % inhibition [4] was 8% and the Δ Fluorescence [5] was 21. For the same molecule, the Δ Fluorescence [6] was 44, the % Binding [7] was 88% and the % inhibition [7] was 12%. For the same molecule, the % Binding [8] was 115%, the % inhibition [8] was -15% and the % inhibition of binding by 10 mM EDTA [9] was 54%. For the same molecule, the % Binding [10] was 40%, the % Binding [11] was 59% and the relative binding with 5 mM CaCl2 [12] was 144%. For the same molecule, the Δ Fluorescence [13] was 46, the Δ Fluorescence [14] was 48 and the % Binding [15] was 100%. It also gave a % inhibition [15] of 0%, a relative binding with 5 mM MnCl2 [16] of 318% and a % Binding [17] of 108%. The % inhibition [17] was -8%, the % Binding [18] was 85% and the % inhibition [18] was 15%. The MFC (linear mean fluorescence channel) [19] was 165, the Δ Fluorescence [20] was 56 and the saturating concentration [21] was 100 µg/mL. It also gave a % Binding [22] of 100%, a % inhibition [22] of 0% and a Δ Fluorescence [23] of 57. It also gave a Δ Fluorescence [24] of 60, a Δ Fluorescence [25] of 52 and a Δ Fluorescence [26] of 52. The % Inhibition of thymocyte-thymic epithelial cell binding (rosettes) [27] was 34.5%, the % Binding [28] was 102% and the % inhibition [28] was -2%. For the same molecule, the Δ Fluorescence [29] was 45, the % Binding [30] was 92% and the % inhibition [30] was 8%. The Δ Fluorescence [31] was 48, the Δ Fluorescence [32] was 34 and the relative binding with 5 mM MgCl2 [33] was 94%. For the same molecule, the % Binding [34] was 87%, the % inhibition [34] was 13% and the % Binding [35] was 100%. For the same molecule, the % inhibition [35] was 0% and the Δ Fluorescence [36] was 58.

With “ELAM1-Rg fusion protein (from UniProt P16581) (Fc fusion)” the MFC (linear mean fluorescence channel) [1] was 70.5.

For human IgG1 (control), the MFC (linear mean fluorescence channel) [1] was 72.9.

B1: CD6, P30203 (protein)
chain: HPSPAPPDQLNTSSAESELWEPGERLPVRLTNGSSSCSGTVEVRLEASWEPACGALWDSRAAEAVCRALGCGGAEAASQLAPPTPELPPPPAAGNTSVAANATLAGAPALLCSGAEWRLCEVVEHACRSDGRRARVTCAENRALRLVDGGGACAGRVEMLEHGEWGSVCDDTWDLEDAHVVCRQLGCGWAVQALPGLHFTPGRGPIHRDQVNCSGAEAYLWDCPGLPGQHYCGHKEDAGAVCSEHQSWRLTGGADRCEGQVEVHFRGVWNTVCDSEWYPSEAKVLCQSLGCGTAVERPKGLPHSLSGRMYYSCNGEELTLSNCSWRFNNSNLCSQSLAARVLCSASRSLHNLSTPEVPASVQTVTIESSVTVKIENKESRELMLLIPSIVLGILLLGSLIFIAFILLRIKGKYALPVMVNHQHLPTTIPAGSNSYQPVPITIPKEVFMLPIQVQAPPPEDSDSGSDSDYEHYDFSAQPPVALTTFYNSQRHRVTDEEVQQSRFQMPPLEEGLEELHASHIPTANPGHCITDPPSLGPQYHPRSNSESSTSSGEDYCNSPKSKLPPWNPQVFSSERSSFLEQPPNLELAGTQPAFSAGPPADDSSSTSSGEWYQNFQPPPQPPSEEQFGCPGSPSPQPDSTDNDDYDDISAA
For B1, the % COS cells binding TE cells [37] was 25%.
